Source: PMC2975869

How the values were obtained:
[1] = biological target: endogenous PTH1R of A10 cells (rat (endogenous in A10)) (UniProt P25961)
[2] = biological target: endogenous PTH1R of A10 cells (rat (endogenous in A10)) (UniProt P25961); assay: radioligand binding
[3] = biological target: HA-tagged PTH1R (parathyroid hormone type 1 receptor), wild type (UniProt Q03431); assay: radioligand binding

Sequence of UniProt P25961 (P25961 27-591): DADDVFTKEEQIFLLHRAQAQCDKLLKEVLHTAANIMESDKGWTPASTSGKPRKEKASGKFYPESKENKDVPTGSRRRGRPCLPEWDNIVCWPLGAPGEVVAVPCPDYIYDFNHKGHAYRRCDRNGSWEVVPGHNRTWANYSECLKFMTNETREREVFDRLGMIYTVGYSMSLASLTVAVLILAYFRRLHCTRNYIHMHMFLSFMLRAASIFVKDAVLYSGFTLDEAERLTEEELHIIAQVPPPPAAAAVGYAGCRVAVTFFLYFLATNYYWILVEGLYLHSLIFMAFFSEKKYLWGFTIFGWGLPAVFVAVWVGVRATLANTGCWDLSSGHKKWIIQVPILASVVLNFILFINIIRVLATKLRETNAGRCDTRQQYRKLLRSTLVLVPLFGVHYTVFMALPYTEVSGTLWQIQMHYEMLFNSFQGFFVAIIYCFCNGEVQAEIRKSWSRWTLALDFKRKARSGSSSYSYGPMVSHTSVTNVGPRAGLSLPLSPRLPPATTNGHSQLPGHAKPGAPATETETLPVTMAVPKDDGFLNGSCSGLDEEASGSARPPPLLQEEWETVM

Row | Substance | cAMP production in A10 cells in response to PTHrP(1-36), 30 min at 37 °C [1] [fold] | Total Binding (TB), cells transfected with EBP50 [2] | Total Binding (TB), cells transfected with pcDNA3 [2] | Total Binding (TB), cells co-transfected with EBP50 [3] | Total Binding (TB), cells co-transfected with pcDNA3 [3]
1 | PTHrP (1-36)-NH2 (peptide) | 3 |  |  |  | 
2 | [125I]-PTH(1-34)NH2 (peptide) |  | 2470 | 1550 | 1980 | 1290
